Assay [1] has as its target p141-ubiquitin fusion protein (human) (UniProt P0CG47). Briefly: cell-based or functional assay.
Assay [2] addresses mu opiate receptor. Put plainly: cell-based or functional assay.

This note sets out measurements from patent US7115267.

Sequence of p141-ubiquitin fusion protein (human) (P0CG47 other isoform, or with tags, fused parts or gaps): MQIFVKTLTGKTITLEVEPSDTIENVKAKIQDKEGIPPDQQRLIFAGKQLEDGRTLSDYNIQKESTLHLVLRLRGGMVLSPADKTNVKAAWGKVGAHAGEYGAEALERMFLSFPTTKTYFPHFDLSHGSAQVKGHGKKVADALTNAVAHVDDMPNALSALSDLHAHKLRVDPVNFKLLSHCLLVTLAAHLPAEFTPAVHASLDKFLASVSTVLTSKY

With “UBP1 ubiquinase (from UniProt P25037 1-809) (enzyme)”, in assay [1], the digestion of the ubiquitin fusion protein in vivo (co-expression in bacteria) was 70%.

For the substance “Purified human hemoglobin alpha chain (from UniProt P69905 2-142)”, the % Kill in the CFU-MIX cycling assay, Human Alpha (100 ng/ml) + CTOP 10^-7 M (0 without CTOP; control 42; CTOP alone 36) in assay [2] amounted to 20%.
